Data published in patent US20210309735A1 (published 2021).

T1: human IL-17A (human, UniProt Q16552 20-155, limits assumed)
T1 construct: Bought from R&D Systems; also called IL-17 antigen (human IL17A)
T1 sequence (looked up): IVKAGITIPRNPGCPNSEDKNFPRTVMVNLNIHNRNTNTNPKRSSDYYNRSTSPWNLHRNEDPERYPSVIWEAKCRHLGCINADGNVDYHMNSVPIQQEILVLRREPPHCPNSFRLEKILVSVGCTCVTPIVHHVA

T2: mouse IL-17A (mouse, UniProt Q62386 26-158, limits assumed)
T2 sequence (looked up): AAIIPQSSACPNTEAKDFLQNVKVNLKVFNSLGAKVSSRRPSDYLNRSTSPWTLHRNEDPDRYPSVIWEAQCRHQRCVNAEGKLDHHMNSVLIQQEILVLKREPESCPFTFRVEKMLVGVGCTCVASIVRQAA


Key:
human IL-17A [1] = target: T1, human IL-17A; assay: BLI (Octet Red96), antibody captured on AHC biosensor, human IL-17A in solution, 1:1 model, 25 C
Description: Using the Octet method (Fortebio Octet®), the chimeric parental antibody and the […] (i.e. PP10759-PP10768) were evaluated with Octet Red96 at 25° C. These antibodies were captured on anti-Human Fc (AHC) biosensors at a concentration of 10 μg/mL. Loaded biosensors were then dipped into a dilution of antigen (human IL-17A (R&D Systems), 500 nM start, 1:3 down, 7 points). Kinetic constants were calculated using a monovalent (1:1) model. In FIG. 2A, Figure I, II, III and IV show the results of PP10759, PP10760, PP10761 and PP10762, respectively. In FIG. 2B, Figure I, II, III and IV show the results of PP10763, PP10764, PP10765 and PP10766, respectively. In FIG. 2B, Figure I and II show the results of PP10767 and PP10768, respectively. It can be seen that the antibodies (i.e. PP10759-PP10768) bind to IL-17A with high affinity. […] Secukinuma is a human IgG1κ monoclonal antibody that binds to IL-17A made by Novartis.

human IL-17A [2] = target: T1, human IL-17A; assay: ELISA, human IL-17A coated at 1 ug/mL, anti-human IgG-HRP detection
Description: ELISA plates were coated with 1 μg/mL IL-17 antigen (human IL17A) (R&D Systems) and incubated at 4° C. in the dark overnight. Then it was washed once with 10 mM, pH 7.4 PBS/Tween (0.05%), blocked with PBST containing 2% BSA for 1 hour and incubated at room temperature for 1 h. The antibodies PP10759-PP10768 were diluted in 5-fold increments for a total of eleven data points and were added to the ELISA wells and incubated at room temperature for 1 hour. The plate was washed with PBS for three times, and then incubated with HRP conjugated goat anti-human IgG antibody for 1 hour. The plate was washed three times with PBS. TMB, the HRP substrate, was added to each well for color development for 5 minutes at room temperature. Equal amount of 0.1N HCl stop solution was added to each well to terminate the reaction. Raw OD₄₅₀ data was collected by POLARstar Omega (BMG Labtech). Besides, hFc isotope was regarded as control. It can be seen that the antibodies (i.e. PP10759-PP10768) bind to human IL-17A with high affinity.

mouse IL-17A = target: T2, mouse IL-17A; assay: ELISA, mouse IL-17A coated
human IL-17A [3] = target: T1, human IL-17A; assay: blocking ELISA, IL-17RC coated; antibody 1 ug/ml pre-mixed with human IL-17A 0.1 ug/ml; bound IL-17A detected
Description: (§1) Recombinant human IL-17RA or recombinant human IL-17RC (1 μg/ml) were coated on the plate, overnight at 4° C. in the dark and then blocked with 2% BSA for 1 hour at room temperature to reduce non-specific binding. The antibodies PP10759-PP10768 (1 μg/ml) pre-mixed with human IL-17A (0.1 μg/ml final concentration) were added to the ELISA wells for 1 hour at room temperature. The plate was washed with PBS for three times, and then incubated with anti-IL17A polyclonal Ab-biotin (R&D Systems) for 1 hour followed by SAV-HRP. The plate was washed for three times with PBS. TMB, the HRP substrate, was added to each well for color development for 5 minutes at room temperature. Equal amount of 0.1N HCl stop solution was added to each well to terminate the reaction. Raw OD₄₅₀ data was collected by POLARstar Omega from BMG Labtech.
(§2) It can be seen that the antibodies PP10759-PP10768 can effectively block the interaction between IL-17A and IL-17RA as well as IL-17A and IL-17RC.

human IL-17A [4] = target: T1, human IL-17A; assay: blocking ELISA, IL-17RA coated; antibody 1 ug/ml pre-mixed with human IL-17A 0.1 ug/ml; bound IL-17A detected
Description: as §1, §2

Row | Binder | Kd (human IL-17A [1]) [nM] | koff (human IL-17A [1]) [s⁻¹] | kon (human IL-17A [1]) [M⁻¹ s⁻¹] | EC50 (human IL-17A [2]) [ng/mL] | binding result (mouse IL-17A) | Blocking % (human IL-17A [3]) [%] | OD450 (human IL-17A [3]) [OD450] | Blocking % (human IL-17A [4]) [%] | OD450 (human IL-17A [4]) [OD450]
1 | PP10759 (antibody, human IgG4 S228P, kappa, V domains shown, expressed in HEK293; also called chimeric antibody PP10759; chimeric parental antibody) VH: EVQLVESGGGLVQPGGSLKLSCVASGFTFSTYGMSWVRQTPDKRLELVAIINHNGGSTFYPDSVKGRFTVSRDNAKNTLHLQMSSLKSEDTAMYYCARDPRHDGYFFDYWGQGTTLTVSS VL: DIQMTQSSPSFSVSLGDRVTITCKASEDIYDRLAWYQQKPGNAPRLLISGATSLETGIPSRFSGSRSGKDYTLDINSLQTEDAATYYCQQYWSVPWTFGGGTKLEIKR | 1.1 | 0.00053 | 480000 | 5.83 | no binding | 95.2 | 0.0888 | 99.5 | 0.0872
2 | PP10761 (antibody, human IgG4 S228P, kappa, V domains shown, Humanized, human IgG4/kappa; also called VH6665/VL6666) VH: EVQLVESGGGLVQPGGSLRLSCAASGFTFSTYGMSWVRQAPGKGLELVSIINHNGGSTFYPDSVKGRFTISRDNSKNTLYLQMNSLRAEDTAVYYCARDPRHDGYFFDYWGQGTLVTVSS VL: DIQMTQSPSSLSASVGDRVTITCQASEDIYDRLAWYQQKPGKAPKLLISGATSLETGVPSRFSGSGSGKDYTFTISSLQPEDIATYYCQQYWSVPWTFGGGTKVEIKR | < 0.001 | < 1e-07 | 400000 | 8.72 | no binding | 99.8 | 0.0688 | 99.7 | 0.0851
3 | PP10765 (antibody, human IgG4 S228P, kappa, V domains shown, Humanized, human IgG4/kappa; also called VH6666/VL6667) VH: EVQLVESGGGLVQPGGSLRLSCAASGFTFSTYGMSWVRQAPGKGLELVAIINHNGGSTFYPDSVKGRFTVSRDNSKNTLYLQMNSLRAEDTAVYYCARDPRHDGYFFDYWGQGTLVTVSS VL: DIQMTQSPSSLSASVGDRVTITCRASEDIYDRLAWYQQKPGKAPNLLVSGATSLESGVPSRFSGSGSGKDYTLTISSLQPEDFATYYCQQYWSVPWTFGGGTKVEIKR | 0.13 | 6.6e-05 | 500000 | 7.61 | no binding | 95.2 | 0.088 | 89.9 | 0.213
4 | PP10762 (antibody, human IgG4 S228P, kappa, V domains shown, Humanized, human IgG4/kappa; also called VH6665/VL6667) VH: EVQLVESGGGLVQPGGSLRLSCAASGFTFSTYGMSWVRQAPGKGLELVSIINHNGGSTFYPDSVKGRFTISRDNSKNTLYLQMNSLRAEDTAVYYCARDPRHDGYFFDYWGQGTLVTVSS VL: DIQMTQSPSSLSASVGDRVTITCRASEDIYDRLAWYQQKPGKAPNLLVSGATSLESGVPSRFSGSGSGKDYTLTISSLQPEDFATYYCQQYWSVPWTFGGGTKVEIKR | < 0.001 | < 1e-07 | 440000 | 8.26 | no binding | 99.5 | 0.0701 | 99.6 | 0.0846
5 | PP10760 (antibody, human IgG4 S228P, kappa, V domains shown, Humanized, human IgG4/kappa; also called VH6665/VL6665) VH: EVQLVESGGGLVQPGGSLRLSCAASGFTFSTYGMSWVRQAPGKGLELVSIINHNGGSTFYPDSVKGRFTISRDNSKNTLYLQMNSLRAEDTAVYYCARDPRHDGYFFDYWGQGTLVTVSS VL: DIQMTQSPSSLSASVGDRVTITCQASEDIYDRLAWYQQKPGKAPKLLISGATSLETGVPSRFSGSGSGTDYTFTISSLQPEDIATYYCQQYWSVPWTFGGGTKVEIKR | 0.31 | 0.00015 | 490000 | 9.44 | no binding | 98 | 0.0762 | 97.8 | 0.109
6 | PP10766 (antibody, human IgG4 S228P, kappa, V domains shown, Humanized, human IgG4/kappa; also called VH6667/VL6665) VH: EVQLVESGGGVVQPGRSLRLSCAASGFTFSTYGMSWVRQAPGKGLELVAIINHNGGSTFYPDSVKGRFTISRDNSKNTLYLQMNSLRAEDTAVYYCARDPRHDGYFFDYWGQGTLVTVSS VL: DIQMTQSPSSLSASVGDRVTITCQASEDIYDRLAWYQQKPGKAPKLLISGATSLETGVPSRFSGSGSGTDYTFTISSLQPEDIATYYCQQYWSVPWTFGGGTKVEIKR | < 0.001 | < 1e-07 | 350000 | 7.35 | no binding | 100 | 0.0682 | 94.9 | 0.147
7 | PP10768 (antibody, human IgG4 S228P, kappa, V domains shown, Humanized, human IgG4/kappa; also called VH6667/VL6667) VH: EVQLVESGGGVVQPGRSLRLSCAASGFTFSTYGMSWVRQAPGKGLELVAIINHNGGSTFYPDSVKGRFTISRDNSKNTLYLQMNSLRAEDTAVYYCARDPRHDGYFFDYWGQGTLVTVSS VL: DIQMTQSPSSLSASVGDRVTITCRASEDIYDRLAWYQQKPGKAPNLLVSGATSLESGVPSRFSGSGSGKDYTLTISSLQPEDFATYYCQQYWSVPWTFGGGTKVEIKR | < 0.001 | < 1e-07 | 370000 | 7.67 | no binding | 99.9 | 0.0685 | 99.5 | 0.0869
8 | PP10767 (antibody, human IgG4 S228P, kappa, V domains shown, Humanized, human IgG4/kappa; also called VH6667/VL6666) VH: EVQLVESGGGVVQPGRSLRLSCAASGFTFSTYGMSWVRQAPGKGLELVAIINHNGGSTFYPDSVKGRFTISRDNSKNTLYLQMNSLRAEDTAVYYCARDPRHDGYFFDYWGQGTLVTVSS VL: DIQMTQSPSSLSASVGDRVTITCQASEDIYDRLAWYQQKPGKAPKLLISGATSLETGVPSRFSGSGSGKDYTFTISSLQPEDIATYYCQQYWSVPWTFGGGTKVEIKR | < 0.001 | < 1e-07 | 360000 | 7.71 | no binding | 99.9 | 0.0684 | 98.1 | 0.105
9 | PP10763 (antibody, human IgG4 S228P, kappa, V domains shown, Humanized, human IgG4/kappa; also called VH6666/VL6665) VH: EVQLVESGGGLVQPGGSLRLSCAASGFTFSTYGMSWVRQAPGKGLELVAIINHNGGSTFYPDSVKGRFTVSRDNSKNTLYLQMNSLRAEDTAVYYCARDPRHDGYFFDYWGQGTLVTVSS VL: DIQMTQSPSSLSASVGDRVTITCQASEDIYDRLAWYQQKPGKAPKLLISGATSLETGVPSRFSGSGSGTDYTFTISSLQPEDIATYYCQQYWSVPWTFGGGTKVEIKR | 0.36 | 0.00016 | 460000 | 7.28 | no binding | 98.9 | 0.0721 | 90.9 | 0.104
10 | PP10764 (antibody, human IgG4 S228P, kappa, V domains shown, Humanized, human IgG4/kappa; also called VH6666/VL6666) VH: EVQLVESGGGLVQPGGSLRLSCAASGFTFSTYGMSWVRQAPGKGLELVAIINHNGGSTFYPDSVKGRFTVSRDNSKNTLYLQMNSLRAEDTAVYYCARDPRHDGYFFDYWGQGTLVTVSS VL: DIQMTQSPSSLSASVGDRVTITCQASEDIYDRLAWYQQKPGKAPKLLISGATSLETGVPSRFSGSGSGKDYTFTISSLQPEDIATYYCQQYWSVPWTFGGGTKVEIKR | < 0.001 | < 1e-07 | 450000 | 6.61 | no binding | 98.9 | 0.0725 | 96.5 | 0.126
